This note sets out measurements from the supplement of paper PMC7877785.

± gives the uncertainty stated by the source.

The series can be described thus: self-splicing fitness, log relative to wild type (ln ratio); higher = more splicing; Tetrahymena group I intron in knt gene, E. coli kanamycin selection, DiMSum; sequences stand for … in CUCUCU…GGAGGGAAAAGUUAUCAGGCAUGCACCUGGUAGCUAGUCUUUAAACCAAUAGAUUGCAUCGGUUUAAAAGGCAAGACCGUCAAAUUGCGGGAAAGGGGUCAACAGCCGUUCAGUACCAAGUCUCAGGGGAAACUUUGAGAUGGCCUUGCAAAGGGUAUGGUAAUAAGCUGACGGACAUGGUCCUAACCACGCAGCCAAGUCCUAAGUCAACAGAUCUUCUGUUGAUAUGGAUGCAGUUCACAGACUAAAUGUCGGUCGGGGAAGAUGUAUUCUUCUCAUAAGAUAUAGUCGGACCUCUCCUUAAUGGGAGCUAGCGGAUGAAGUGAUGCAACACUGGAGCCGCUGGGAACUAAUUUGUAUGCGAAAGUAUAUUGAUUAGUUUUGGAGUACUCGUGGUCG
In short, it runs like this: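 DiMSum derived fitness as the error-weighted combination of fold changes across replicates, kanamycin versus no kanamycin, normalised to wild type. E. coli BL21(DE3) held the library, which randomised all eight P1ex-region intron nucleotides within the knt kanamycin-resistance gene on pET-22b(+). Six replicate transformations grew overnight at 37°C or 30°C on LB agar with or without 25 μg/mL kanamycin, also containing 100 μg/mL carbenicillin, 50 μM IPTG and 0.2% rhamnose, and pooled colonies were amplicon-sequenced on an Illumina HiSeq 2500.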

As for AGGAAGCAAUAUUACGGUAG, the “self-splicing fitness (ln)” value was -3.37 ± 0.36 (30 °C) and -1.6 ± 0.31 (37 °C).
With CGAAAGCAAUAUUACGUCAU, the “self-splicing fitness (ln)” value was -4.71 ± 0.36 (30 °C) and -0.631 ± 0.14 (37 °C).
As for UAAGAGCAAUAUUACGAAUA, the “self-splicing fitness (ln)” value (30 °C) was -3.27 ± 0.26 and the “self-splicing fitness (ln)” value (37 °C) is -1.32 ± 0.19.
In the case of GAUAAGCAAUAUUACGCGGG, the “self-splicing fitness (ln)” value runs as follows: (30 °C) -2.89 ± 0.11; (37 °C) -2.34 ± 0.12.
On to CCCGAGCAAUAUUACGUUCU, for which the “self-splicing fitness (ln)” value by setting is: (30 °C) -3.61 ± 0.25; (37 °C) -2.1 ± 0.25.
On to ACGGAGCAAUAUUACGGCAC, for which the “self-splicing fitness (ln)” value was -3.21 ± 0.28 (30 °C) and -2.43 ± 0.23 (37 °C).
On the same counts, the results for ACUAAGCAAUAUUACGUGGC are -3.03 ± 0.14 and -2.57 ± 0.17.
On the same counts, the results for UCAUAGCAAUAUUACGGCCU are -3.03 ± 0.17 and -2.48 ± 0.31.
As to GUGUAGCAAUAUUACGAUUG, the “self-splicing fitness (ln)” value was -4.18 ± 0.3 (30 °C) and -2.18 ± 0.2 (37 °C).
On to CGUCAGCAAUAUUACGACGU, for which the “self-splicing fitness (ln)” value reads like this: (30 °C) -3.23 ± 0.17; (37 °C) -1.93 ± 0.14.
Regarding GAUGAGCAAUAUUACGGAGG, the “self-splicing fitness (ln)” value was -3.47 ± 0.26 (30 °C) and -3.23 ± 0.35 (37 °C).
In the case of CGGGAGCAAUAUUACGAAGG, the “self-splicing fitness (ln)” value by setting is: (30 °C) -1.9 ± 0.39; (37 °C) -1.74 ± 0.41.
As to AUCUAGCAAUAUUACGGUUA, the “self-splicing fitness (ln)” value was -0.746 ± 0.15 (30 °C) and -0.055 ± 0.12 (37 °C).
On to AAUGAGCAAUAUUACGUACG, for which the “self-splicing fitness (ln)” value (30 °C) was -3 ± 0.26 and the “self-splicing fitness (ln)” value (37 °C) is -2.32 ± 0.24.
On to UUCUAGCAAUAUUACGCCGU, for which the “self-splicing fitness (ln)” value was -2.06 ± 0.46 (30 °C) and -0.835 ± 0.34 (37 °C).
For AUAAAGCAAUAUUACGACGC the same measures were 0.18 ± 0.093 and 0.349 ± 0.14.
With GGACAGCAAUAUUACGUUAA, the “self-splicing fitness (ln)” value was -0.204 ± 0.07 (30 °C) and 0.00356 ± 0.08 (37 °C).
GUUGAGCAAUAUUACGACAC: the “self-splicing fitness (ln)” value reads like this: (30 °C) -0.129 ± 0.18; (37 °C) -0.362 ± 0.19.
As for GAGAAGCAAUAUUACGUUAU, the “self-splicing fitness (ln)” value runs as follows: (30 °C) -3.33 ± 0.19; (37 °C) -2.47 ± 0.16.
In the case of CUCCAGCAAUAUUACGGUCA, the “self-splicing fitness (ln)” value reads like this: (30 °C) -2.86 ± 0.13; (37 °C) -1.82 ± 0.13.
For CGGAAGCAAUAUUACGCAUG, the “self-splicing fitness (ln)” value is -1.53 ± 0.13 (30 °C) and -0.32 ± 0.11 (37 °C).
As for ACGAAGCAAUAUUACGAAGG, the “self-splicing fitness (ln)” value was -2.21 ± 0.17 (30 °C) and -1.4 ± 0.15 (37 °C).
Turning to CUCCAGCAAUAUUACGGCCG, the “self-splicing fitness (ln)” value is -1.3 ± 0.1 (30 °C) and -0.777 ± 0.14 (37 °C).
For the sequence CCCUAGCAAUAUUACGUCCA, the “self-splicing fitness (ln)” value is, setting by setting: (30 °C) -2.95 ± 0.23; (37 °C) -2.83 ± 0.31.
As to ACACAGCAAUAUUACGCGCG, the “self-splicing fitness (ln)” value by setting is: (30 °C) -0.558 ± 0.082; (37 °C) 0.0666 ± 0.091.
For UAAAAGCAAUAUUACGCGCC the same measures were -1.76 ± 0.2 and -0.751 ± 0.24.
For UUGGAGCAAUAUUACGUCGA, the “self-splicing fitness (ln)” value is, setting by setting: (30 °C) -2.6 ± 0.3; (37 °C) 0.049 ± 0.27.
Regarding UGCGAGCAAUAUUACGUCAG, the “self-splicing fitness (ln)” value (30 °C) was -2.69 ± 0.27 and the “self-splicing fitness (ln)” value (37 °C) was -2.11 ± 0.43.
Regarding CUUUAGCAAUAUUACGCACU, the “self-splicing fitness (ln)” value by setting is: (30 °C) -3.69 ± 0.44; (37 °C) -1.83 ± 0.19.
For GGCGAGCAAUAUUACGUUCG the same measures were -3.74 ± 0.27 and -1.59 ± 0.3.
Regarding GGUUAGCAAUAUUACGCAUA, the “self-splicing fitness (ln)” value is -0.622 ± 0.12 (30 °C) and -0.182 ± 0.14 (37 °C).
For AAGCAGCAAUAUUACGGUAC the same measures were -3.08 ± 0.23 and -2.49 ± 0.22.
As for ACCUAGCAAUAUUACGGCGG, the “self-splicing fitness (ln)” value by setting is: (30 °C) -1.36 ± 0.12; (37 °C) -1.6 ± 0.14.
Consider AUAAAGCAAUAUUACGCGGA, for which the “self-splicing fitness (ln)” value (30 °C) is -1.65 ± 0.083 and the “self-splicing fitness (ln)” value (37 °C) stood at 0.155 ± 0.089.
Regarding UUGUAGCAAUAUUACGGUAA, the “self-splicing fitness (ln)” value is, setting by setting: (30 °C) -1.2 ± 0.16; (37 °C) -0.727 ± 0.13.
Consider ACCGAGCAAUAUUACGGGGC, for which the “self-splicing fitness (ln)” value runs as follows: (30 °C) -3.64 ± 0.2; (37 °C) -2.47 ± 0.2.
Regarding GUAGAGCAAUAUUACGGAAU, the “self-splicing fitness (ln)” value is, setting by setting: (30 °C) -2.36 ± 0.084; (37 °C) -1.18 ± 0.096.
